Assay results from the domain aggregation screens of Martell et al. (2025).

Assay: soluble fraction after stress (log2 fold change); higher = more stays soluble; pooled small domains, quantitative proteomics
Settings: stress: pH 4
Method in brief: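 Custom libraries of small protein domains were pooled and exposed to pH 4. High-throughput quantitative proteomics then measured the log2 fold change in the amount of each domain still soluble, with higher values meaning more stayed soluble. This soluble-fraction fold change stands for aggregation propensity.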

| Sequence | soluble fraction (log2) |
| --- | --- |
| HMEEDPVIAAQRFLNIFRQLHIFTAAKRKEFDELLLKQPASVKGMFASLPGGSVLQEYVNNLEQNAG | -0.0952 |
| HMEEFIEHTVEKGEFLSAIIVAYNQHLKSKGFKSITTRDILNANPKLKPELIQVGQKIKIPRRKK | -0.0958 |
| HMEEFLSFIADILEVDKNTLTLETSQDDVETWDSLMQLRLLGEIEAKYGVMIPMERISTIKKLNDFYQYIK | -1.76 |
| HMEEIIPIRFLRHRVKRRETIFGLTQKYNITEDQLKRYNTRLYSEALERKMVLQIPVFPEVDED | -0.667 |
| HMEEITLQEQINFIKDMLLNKEKFHLTDVITKKSKIYVVSLFLALLELIRLEEINFRQTQNFSDIIISRI | -0.381 |
| HMEELGKVRPELDGNEIAKVLGITPGPVLGRAYTYLLSVRLDEGPIGPDVARERLLAWWAEQPES | -2.01 |
| HMEELIEMNGVVMEILPDSRYRVTLDNGHKLIAYTGGKMKKNHIRILAGDKVTLELSPYDINNGRITFRHI | -0.146 |
| HMEELTDSELNNLYRELFIARSNASDGVGIIEQKTIKGITYRLSNDNNYLIKELGNKEYIYKNGVWEEYT | 0.0623 |
| HMEENNIVIYITGAVKKEGIYEIKENSRISDAIEAAGGLLENANIKDINLAYIIEDGVKIYIPTNEEVNK | -1.35 |
| HMEEPFRIEKKGDIYYISGKTVERLVAMTDLDNDSAVKRLQRTLKRMGVEDALREHGINPGDTVVIGNYEF | 0.04 |
| HMEEQIEVPVQINGKVRSKLTVAPETDEKQIEALALADPKVQQQLEGKRVLKVIVAQKRLVNIVA | -0.035 |
| HMEESTYQWNNFVRDFYASRVSAQYTNKLKVAAILWHHVKNTPQSKIYHDNLVSKYAEEINYFK | -0.387 |
| HMEETEVPPVTGYEQSKASEVLTGKGLIPDIITVADEETAAGYVIRTDPASGEKVPSGTTVKVYVSSGP | -0.0585 |
| HMEETGFYIKLQDQEVVIFHNDQVTPYEYTGIREEVLPESELEKLREGFFVEDEKELYSVLENLS | -0.412 |
| HMEETLEELGKEYESAFTMYEKLWSYYKKQNYHQVNHKRSERYEILLGFVREYHPEKVEYYRELL | -0.482 |
| HMEETLRALAKKISEKVLKSGRSTTLEPMNPYERRIIHSAVSEIEGVSSKSVGEEPYRKVVISSDNP | -0.0148 |
| HMEETLRELAVKISKQVIKTGRNSVLEPMNPYERRIIHAVISEIEGVSSKSVGEDPNRKVVIMSTNP | -1.07 |
| HMEEYTVEFVKHKVKRKQTLYTISKLYNVSIDDIIKYNSQIEGFNLSRRMELNIPVKKTLIVKNE | -0.823 |
| HMEFDTEFVLRQAMHAFMQYGYAKTSMQKLKEATHLHPGSIYAAYGNKKGLFLAATEQYQKDR | -0.101 |

| Sequence | soluble fraction (log2) |
| --- | --- |
| HMEFEYFQLRDHLYNLIMHPDKEKLKKDPDYLKLMSMAFSLLEDQNVGKDILEIAIKSIENFK | -0.674 |
| HMEFLDLEIDVDATDGRLLAFLAAKGEVVSQTFNDTIITVRVRMPTGAMGQVHRSALAIRPA | -1.43 |
| HMEFLDQAFLHETMRKVNQDATINLLKKVYEVPQKFIGRKVTVQYDPEDLSRVYVKDLSFPEPVTVYPV | 0.12 |
| HMEFNDLNDDEKAILHIMYNTGEKMTTALAARITNRGRNFASKLLKSLVKKEILEWHGTSKQDRNQYYTLA | -0.337 |
| HMEFQVKVIVSSLNIRSGPGTSYDTLGTVTKGDIFTIVETNSDSTWGKMQSGGWISIKDAYVKK | -0.216 |
| HMEFTFTLPRGYIDDTGMIHREGTMRLANAADEILPLKDPRVQQNPGYLTIILLARVITKLGSL | -0.165 |
| HMEFTKSPLDEIAGVGPARKRALLAAFGTAKAVSQAALADLEKTPGVNAATARLVYAHFHEK | 0.22 |
| HMEFTVFMNSAGGSKLQVVKTVKELTGLGLKEAKAIVDGSPGPVKEGLSKADAEAMLAKLQEAGADVEL | -0.117 |
| HMEFYYSDLVGMIVYDTGGNELGKVQAVLNHGAGDLLEIHGVNLKTSILIPFTKEAVPTVDIAARRIVTDP | 0.00543 |
| HMEGAEDMNRALALAFLRDNSRSTVAQLAEHLGSSKRSAERLVAQLKDEGVLERQGSPRAGLWIVHI | 0.221 |
| HMEGEVVESPLVGVAYLASGPDKPAFVQVGDSVSKGQTLLIIEAMKVMNEVPAPRDGIVTEILV | -0.279 |
| HMEGFSAGQFVRASVDNTAFYLKRPKGDAVADKLLRRGASMKVISASGDYLKVELDSGEVGFVPPVMVE | 0.0892 |
| HMEGIWAVFYDGKPINLKSSSLVANYPGPKYKKVSFSNPGHAENLAKKLNAQHNTDKFGVYLLKSGDKFS | 0.219 |
| HMEGMSIYVTVNGDMVHLTGKMSYVFVDVFEHIDFDLSKPQGSGIVTKLNGRDAQYMEEIRSGDMIEIYWR | -0.669 |
| HMEGNLVEIFEDAFGRTMSTMDIEYINQFKRTGYDDEMIVSALREAVKSNALSFRYIERVLENWAHS | -1.83 |
| HMEGTEVTTEPPGAQIEFDGKQFGPTPTRVPGLAAGKQFRITLAGYQEAKPKLKNNPKEGEPLSFTLTAI | 0.264 |
| HMEGTVQQDKFDAYKAKFEDAISNDLNTSMAITIIYDLLKDDMNDKTKLALINDFDKVLSLNLTTA | -1.17 |
| HMEGVTVPDVTRISLDEAEELLTSYGLRFEVADRRANSAFPGNYVIDQAPSAEVIVKPNRKIYLTVNAA | -0.188 |
